Assay: soluble on expression in E. coli; label from the status in PepcDB or PDB records

Row | Sequence | soluble on expression in E. coli
1 | GPGSMDQDLSVCEQEYRKLLDPEEPLFSRTRELYRLKESILRTPAGVHVLAKAVDTTNSVLLQHELVYNLGQSAMVEACPHLERFIRAVGKYDIVTRHEAVEALGAIGDPACIPLLRHFMEPANEPEAAIRESCELALKRIEMLEEKGKEAVGPAANCPFVSIDPAPAFNGTNTGGSAPYTVSELENLLCDTTGAVSLWLRYQAMFTLRNIGTPEAVAALSRALRQDNTSALLRHEVAFVLGQLEHPASQPALLDALRDEHEAPMVRHEAAEALGAIADPKTLPALEEYAKHKEAIVRDSCVVALEMHKYWSQFNNQRIQH | soluble
2 | TDNTKPNRMPVAPYWTSPEKMEKKLHAVPAAKTVKFKCPSSGTPQPTLRWLKNGKEFKPDHRIGGYKVRYATWSIIMDSVVPSDKGNYTCIVENEYGSINHTYQLDVVERSPHRPILQAGLPANKTVALGSNVEFMCKVYSDPQPHIQWLKHIEVNGSKIGPDNLPYVQILKTAGVNTTDKEMEVLHLRNVSFEDAGEYTCLAGNSIGLSHHSAWLTVLEALEER | soluble
3 | TIPKWWKEAVFYQVYPRSFKDTNGDGIGDINGIIEKLDYLKALGIDAIWINPHYDSPNTDNGYDIRDYRKIMKEYGTMEDFDRLISEMKKRNMRLMIDVVINHTSDQNEWFVKSKSSKDNPYRGYYFWKDAKEGQAPNNYPSFFGGSAWQKDEKTNQYYLHYFAKQQPDLNWDNPKVRQDLYAMLRFWLDKGVSGLRFDTVATYSKIPDFPNLTQQQLKNFAAEYTKGPNIHRYVNEMNKEVLSHYDIATAGEIFGVPLDQSIKFFDRRRDELNIAFTFDLIRLDRDSDQRWRRKDWKLSQFRQIIDNVDRTAGEYGWNAFFLDNHDNPRAVSHFGDDRPQWREPSAKALATLTLTQRATPFIYQGSELGMTNYPFKAIDEFDDIEVKGFWHDYVETGKVKADEFLQNVRLTSRDNSRTPFQWDGSKNAGFTSGKPWFKVNPNYQEINAVSQVTQPDSVFNYYRQLIKIRHDIPALTYGTYTDLDPANDSVYAYTRSLGAEKYLVVVNFKEQMMRYKLPDNLSIEKVIIDSNSKNVVKKNDSLLELKPWQSGVYKLNQ | soluble
4 | MPTPGTGSVPELQLVPFQLGHFPILQRWFATEKELVQWAGPALRHPLSLEQMHEDLAESRRRPPLRLLWSACRDDQVIGHCQLLFDRRNGVVRLARIVLAPSARGQGLGLPMLEALLAEAFADADIERVELNVYDWNAAARHLYRRAGFREEGLRRSATRVGRERWNVVLMGLLRQEWAAGGAGND | soluble
5 | MGSDKIHHHHHHMEDYEGKFSPSELKLKGIHTSTTFWTVGMIVQQYKNGHLVIPKIQRGYVWNEEKARRFIMSLLQGFPIPPIFIIELSGKFYVVDGQQRIRTILWFLGEDNELLEKLGPLRVPIKELAENYNEYGVTNLSEAIIKKIIFGNHPKEFNYKYFTKDFRQYFESLSIPVQHISISSGKEYILTDIFLRINQGSVKLSAMELWRVYYGKDIEEYFHKLNELARYTVAKIYEVSNGKISRQKLERFRIDEFILTFDVLINGLITPPNYIPKDAKLGAVIFSQKTTLKKVKIFVLENRRKVFKNNKGELKKFLDYLEREYKEILKMITYVLGEFTFRRPTIGNECQYALIRPSGNDINEAVFLYEVAIFKLLKDNGHSELIYENKDFIKHVILTSLIENDELFSRSTSTFRSVANKLELAKLTYKKIITKEDNITKDNLKRLLYEKFRASRVSNPVCPYCKEPISDISVADLAHIRPLAFGGQTYIHNLTLAHSTCNRRFGVRDISQYINRC | not soluble
6 | MRFYNREKELARLMEIATLSEESAHLAVITGRRRVGKTELIRKFAEGRDDFLYFFVSKKKPRVLLDEFRDLLAARVPLLASASFGSFDDFFRALFEITKERPLFIVFDEFQNFQQVDPAVFSTLQDLWDRNKGTIKGTIVCIGSVQTLMREIFEGAKEPLFGRVTARLYVEPLIPDVVATILADHQVDAVRHLPFFFTLFGGIPKYYFLLDRYRLFGKTPAEIIRKFFCETDALLQNEGKDLLVEEFGKNYHLYFSILQVIAGGENQMARIADKSGINVNSISKYLDELTSYYQVIERRLPVTATRQEQKTGRYYLKDPLLRFWFRYIYRNQSLIEIGDEEGLLGKIQADLSTFMGWSFEELIRAMLLKRNDGTVVPFGFTRIGGFWTKRGDVEIDIVALNEEDGAIFFGECKLSGSRFSVADARRLKEKAKAVPWRTGDRREHFVLFCMDDLESDAEQALAAEGVGVVRLRQLLSVPLEHHHHHH | not soluble
7 | QPKPEVPQCVADWIEECKEEDLTLKGLFSNSDMPAKIFDWIFGSDENCRLMAEAWINGYTVEKEKLYTVDLPNGQPLVRGINTLYFSQNLATENVKLTESEIRKDFEWAWQFAEEVTE | not soluble
8 | MKDVVDKCSTKGCAIDIGTVIDNDNCTSKFSRFFATREEAESFMTKLKELAAAASSADEGASVAYKIKDLEGQVELDAAFTFSCQAEMIIFELSLRSLALEHHHHHH | not soluble
9 | MPHILNVTVPIPETHVLITKDEYDELIGYSLDPVWNMSDLKKKLKIASDETIKDRLLFHPRFEKELRAQGIVHYPDENFNRWRFNARKMNKFVDEHFNEIYKERIKLEHHHHHH | not soluble
10 | MTKHVAVLLAHGFEEAEAVIFIDIMRRLDIRVDILSCEATTALSTYFETPISADALLSDRLDHHYDAVMMPGGPKGTDSLTANPQVIAFLRRHIAQDKYICALCSSGAKVLAAHHLLAGRTYSTGDKLADKFADGAYLDQDVVVDGKFITAKGLGVSFEFAFTVARHLLSDNLPKVEHQASHIYFKHGSAQT | not soluble
11 | MSGFFQRLFGKDNKPAIARGPLGLHLNSGFTLDTLAFRLLEDELLIALPGEEFTVAAVSHIDLGGGSQIFRYYTSGDEFLQINTTGGEDIDDIDDIKLFVYEESYGISKESHWREAINAKAMGAMTLNWQEKRWQRFFNSEEPGNIEPVYMLEKVENQNHAKWEVHNFTMGYQRQVTEDTYEYLLLNGEESFNDLGEPEWLFSRALGVDIPLTSLHIIG | not soluble
12 | MKFCSLCGATVVQRIPDGDNRLRYVCDACHTVHYQNPRIVAGSLPVWDGQVLLCRRAIAPRLGYWTLPAGFMENGETLAQAAARETEEEANARIGDLQLYTLFDLPHISQVYLFFRAELLDLDFSAGDESLEVRLFDEAEIPWSELAFPTIGRTLECYFSDRREGCFPVRNEAIAPMLASYKKD | not soluble
13 | MGSDKIHHHHHHMRTHGWNSTCVNRPSGSANSRRLVAHGNGWQTIDMDFAARYVALGDSFTEGVGDDDPARPNGVRGWADRVAEQLGAADPAFGYANLAIRGRKLRQIMAEQVDAAIELKPTLVTIYAGANDILRPKVDIDDLLAEYDAGIRKLSATGATVVMFTGFDARGSKVFGTMRGRTAIYNELVRGIAGDHGALLVDYWRFSEYYDWGMWAKDRMHMSAAGHANMAKRVLTVLEHDHSIDVPPMTPVPELSRADAIRANARWVREFAGPWVVRRVTGKSSGDGLQPRYSQLTRL | not soluble
14 | SLDMQHRIRQLFQASIETKQQALEVLPPYIEQASLVMVNALLNEGKILSCGNGGSAGDAQHFSSELLNRFERERPSLPAVALTTDSSTITSIANDYSYNEVFSKQIRALGQPGDVLLAISTSGNSANVIQAIQAAHDREMLVVALTGRDGGGMASLLLPEDVEIRVPSKITARIQEVHLLAIHCLCDLIDRQLFGSEEEG | soluble
15 | MSLVLVKAMARIVMKFGGTSVANLERIHNVARHVKREVDAGHEVAVVVSAMSGKTNELVDWVQNAAKVAGTNAASFYDAREYDAVVASGEQVTSGLLAITLQSMGINARSWQGWQIPIRTDNAHGAARILEIDGSDIVHRMGEGQVAVVAGFQGIGPDNRIATLGRGGSDTSAVAIAAAVKADRCDIYTDVDGVYTTDPRIEPKARRMKKIAFEEMLEMASLGAKVLQVRSVELAMVHKVRTFVRSSFEDPDAPGMGDLINPPGTLICDEDEIVEQEVVTGIAYAKDEAQISLRRVADRPGVSAAIFGPLAEAHINVDMIVQNISEDGSRTDMTFTVPSGDVAKALRVLDENKGQIGFDVAQNETGLAKVSVIGIGMRSHAGVAASAFKALAEKNINIKAITTSEIKISILIDGAYAELAVRTLHSAYGLDKAEGHHHHHH | not soluble
16 | MSLITIGITGGIGSGKSVVSRILLTLGIPVYDSDSRAKWLNDHSPVVRQALTGLIGSDLYENGILRRDRLAAAIFSSGDLLEQVNGIIHPEVKKDFCQWRSECESDLCAIESAILFSSGFNSLCDTVIRVDAPEKIRQERAMARDGSSAETMRQRMLSQEREQSLAKAGADHTVLNAPPHLLVPQVVRIIETVRTKRPNPPDEGHHHHHH | soluble
17 | MTKIAFVFPGQGAQKVGMGQDVAAEYPEAKKIYDDADERLGFSITEIITEGPIELLTKSENAQPALVSTSVAILRALETYGVKADYVAGHSLGEYSALVAGGFLEASDAIYLVRKRGELMEAAVPNGAGAMAAVLGVDRETLKTITEEVTKEGDAVQLANLNCPGQIVISGTTAGVEKAGEKAKESGAKRVLPLAVSGPFHSSLMEPAALAFRDVLAEVKISDGQIPVVNNVDAKETTDKSEISDKLIKQIYSPVLWEDIVEELIKNGVDTFVEIGSGKVLAGLIKKINRDVTVLSAGDAESVKSVAATLKGE | not soluble
18 | MGSDKIHHHHHHMITVVGGTFSKLHKGHKALLEKAIETGNEIVIGLTSDEYVKRNKVYPAIPYKERYRNLYNYMVKKTNKFRIRPIDDRNGNAPYERDYEIIVVSPETYQRSLKINEIRIQNGLPPLKIIRVPYVLAEDLFPISSTRIINGEIDGNGRRLKPVKVAIATNNSAKLKATNDFFHKLMKNFDVIQNTDYKLETQQPFGEVTMNMATKRAMQSLGDNDYAIGIESGIVYERFSRKYFDFHYCVVIDRFGNVTRGSSSGFEVPDRIIDLIKRDMSFSQAYGKVIDTNGIDDSTGIVGKISNGRVRRYDLIMECIRNAFIPRFDPDFYDTTYTPP | not soluble
19 | MAHHHHHHMTLGPTTRVTVNVTGTVTVPLHLNALESLDDAPLQEEIMREAVRLSLAEQLGGFDNFTVTSARKGGNHVCEARLDVGDLCSIIADVKNAYEHGERRLRELQQLITAIREQLKESGREGGSEDEDITVPGIVKVVSDMVEDALRGPGESSLSAAIREVSNDKSWLEEVPVGDRSGGAASKSDEDSPSGVGYTRLPDSGEDSNGSERQLE | soluble
20 | MILGTPKADWLAEFPRLADLIALRPSEWFNPAIAPSAEALADVGLGAADVADASARLQRFAPLIARLFPETAASGGIIESDLVEVATFHDALRQHYAAELPGRLWLKRDSHLPISGSIKARGGIYEVLAHAERLALEHGLVGLDDDYSRLAEADCRAFFARHRIAVGSTGNLGLSIGIIGAALGFQASVHMSADARQWKKDKLRAHGVTVVEYASDYSVAVEQGRREAAGDPYTHFVDDENSRDLFLGYAVAAERLRGQLDAAGIRVDSEHPLFVHLPCGVGGGPGGVAFGLKLAFGDAVHCLFAEPTHSPCMFLGVYTGRHEQVSVQDFGIDNRTAADGLAVGRPSGFVGRAMQRLLDGYYTVDDDELFRLLALLERSQGIRLEPSALAGATGIARVTREPQGYRERMGLTSARLANATHLVWATGGGMVPETEMRAYLERGRSLL | not soluble
21 | GKPKTDTDFQTYNGDGFKLQIPSKWNPNKEVEYPGQVLRFEDNFDATSNVIVAITPTDKKSITDFGSPEQFLSQVDYLLGRQAYSGKTDSEGGFESDAVAIANVLETSTAEVGGKQYYYLSILTRTADGNEGGKHQLVTATVNDGKLYICKAQAGDKRWFKGAKKFVENTATSFSLA | soluble
22 | MLYPSKPNNEALRIQTLRELNVLDTSPEERFDRLTRLAKRLFNVPIALVSLVDADRQWFKSCVGLDVSETSRDISFCGHAILGDQILTVPDAGLDERFHDNPLVVGAPGIRFYAGCPLTVTNGSKLGTLCLIDIKPRDLDDEDRALLRDLARMAEQELAAVQMASMDELTLLSNRRGFEALARHALGVCKRLEKPATLLFFDLNDFKQINDTYGHAEGDGALKTFADVLRIAFRESDVIGRLGGDEFVALLTAADHVETSAIMARLREILDERNATLKRGYDIRFSVGQIEYDAERHPDIEALLADADKAMYLHKQASKRAR | not soluble
